# Laboratory results taken from the supplement of paper PMC9112550, “Optimization of the antimicrobial peptide Bac7 by deep mutational scanning” (BMC Biology, 2022).
# Test system: Escherichia coli TOP10
# Assay: shrunken log2 fold change of peptide-encoding DNA abundance (4.5 h post-induction vs induction); higher = less antimicrobial activity (less host growth inhibition)
# Details: time post-induction: 4.5 h; library: site-saturation at positions 5, 18, 19, 20
# 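Note: peptides expressed intracellularly from a pBAD plasmid library in pooled LB shake-flask culture, induced with 0.3% L-arabinose, DNA abundance read by NGS, three biological replicates, DESeq2 with apeglm shrinkage.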
row,Sequence,shrunken log2 fold change
1,RRIRQRPPRLPRPRPRPWKMPRP,-0.112
2,RRIRKRPPRLPRPRPRPGTFPRP,0.253
3,RRIRFRPPRLPRPRPRPYKSPRP,-0.382
4,RRIRIRPPRLPRPRPRPVYMPRP,-0.678
5,RRIRERPPRLPRPRPRPATLPRP,-0.274
6,RRIRQRPPRLPRPRPRPMCNPRP,-0.389
7,RRIRYRPPRLPRPRPRPCIPPRP,-0.11
8,RRIRRRPPRLPRPRPRPWCWPRP,0.123
9,RRIRDRPPRLPRPRPRPDIMPRP,0.0348
10,RRIRDRPPRLPRPRPRPVLGPRP,0.162
11,RRIRQRPPRLPRPRPRPADEPRP,-0.101
12,RRIRLRPPRLPRPRPRPCPCPRP,-0.0536
13,RRIRMRPPRLPRPRPRPPVKPRP,0.512
14,RRIRNRPPRLPRPRPRPPLMPRP,-0.0745
15,RRIRFRPPRLPRPRPRPFPKPRP,0.00183
16,RRIRNRPPRLPRPRPRPHIAPRP,-0.621
17,RRIRTRPPRLPRPRPRPEDQPRP,0.112
18,RRIRGRPPRLPRPRPRPWEFPRP,-0.0208
19,RRIRVRPPRLPRPRPRPWNDPRP,-0.0722
20,RRIRNRPPRLPRPRPRPPLKPRP,0.0326

row,Sequence,shrunken log2 fold change
1,RRIRYRPPRLPRPRPRPRSTPRP,-0.156
2,RRIRSRPPRLPRPRPRPTWCPRP,0.18
3,RRIRGRPPRLPRPRPRPVKLPRP,-0.0292
4,RRIRFRPPRLPRPRPRPMFFPRP,-0.549
5,RRIRNRPPRLPRPRPRPDFFPRP,-0.138
6,RRIRWRPPRLPRPRPRPKVEPRP,-0.0433
7,RRIRSRPPRLPRPRPRPGSFPRP,0.209
8,RRIRMRPPRLPRPRPRPSSVPRP,3.19
9,RRIRFRPPRLPRPRPRPSPRPRP,0.426
10,RRIRIRPPRLPRPRPRPEQQPRP,-0.132
11,RRIRRRPPRLPRPRPRPNLNPRP,-0.0389
12,RRIRSRPPRLPRPRPRPDWHPRP,-0.195
13,RRIRPRPPRLPRPRPRPPYVPRP,-0.0964
14,RRIRDRPPRLPRPRPRPHPRPRP,0.081
15,RRIRHRPPRLPRPRPRPERHPRP,0.0281
16,RRIRVRPPRLPRPRPRPHARPRP,0.0538
17,RRIRVRPPRLPRPRPRPYYAPRP,-0.915
18,RRIRSRPPRLPRPRPRPWRKPRP,0.0156
19,RRIRDRPPRLPRPRPRPQYEPRP,-0.025
20,RRIRCRPPRLPRPRPRPYERPRP,-0.133

row,Sequence,shrunken log2 fold change
1,RRIRNRPPRLPRPRPRPRHLPRP,-0.337
2,RRIRFRPPRLPRPRPRPRLVPRP,0.207
3,RRIRCRPPRLPRPRPRPKWIPRP,-0.366
4,RRIRNRPPRLPRPRPRPLHVPRP,0.251
5,RRIRMRPPRLPRPRPRPSVHPRP,-0.0707
6,RRIRHRPPRLPRPRPRPKTCPRP,-0.0999
7,RRIRGRPPRLPRPRPRPWMDPRP,0.166
8,RRIRFRPPRLPRPRPRPEFAPRP,-0.175
9,RRIRDRPPRLPRPRPRPLRQPRP,0.565
10,RRIRHRPPRLPRPRPRPATEPRP,0.29
11,RRIRMRPPRLPRPRPRPPEPPRP,0.296
12,RRIRERPPRLPRPRPRPFLHPRP,-0.332
13,RRIRMRPPRLPRPRPRPGWHPRP,0.41
14,RRIRLRPPRLPRPRPRPDKKPRP,-0.0455
15,RRIRTRPPRLPRPRPRPRAQPRP,0.461
16,RRIRERPPRLPRPRPRPVGFPRP,0.0681
17,RRIRPRPPRLPRPRPRPSGSPRP,0.0191
18,RRIRERPPRLPRPRPRPQFFPRP,-0.0736
19,RRIRGRPPRLPRPRPRPTAKPRP,1.92
20,RRIRMRPPRLPRPRPRPVTAPRP,0.57
